This is an account of results in paper PMC5627596.

pKd: −log10 of the molar value.

The pKd is the negative decadic logarithm of the Kd, by convention in mol/L. By stoichiometry N is commonly meant a count of units in the complex or per binding partner.

Assay [1] addresses heterodimeric Fcab Janus448 (one VEGF-binding 448 chain, one Fc-wt chain) (human). Put plainly: ITC; 200 µM VEGF titrated into 40 µM Janus448 or JanusCT6 in the cell; PBS (pH 7.4), 25°C; one-set-of-sites model. (In general: ITC needs no label: the signal is the heat of the interaction.)
The target in assay [2] is heterodimeric Fcab JanusCT6 (one VEGF-binding CT6 chain, one Fc-wt chain) (human). Described as above.

In assay [1], “vascular endothelial growth factor (VEGF-A), truncated version, residues 14-108 (domain or fragment)” gave a pKd of 7.59, a dH of -105 kJ/mol and a stoichiometry N of 0.5. For the same substance, in assay [2], the pKd is 8.40, the dH was -142 kJ/mol and the stoichiometry N stood at 0.5.
